Assay results as given in paper PMC5293257.

Columns and labels:
[1] = target: fibronectin (human (endogenous in dHL-60)) (UniProt P02751)
[2] = target: fibronectin (human (endogenous in dHL-60)) (UniProt P02751); remark: listed apart in the source

## integrin α5β1 (from UniProt P08648 42-1049; P05556 21-798) (receptor)
[1]
  adhesion of K562 cells to NETs coated plates (NETs from dHL-60 stimulated in serum free conditions), percentage of adherent cells: 62%
  adhesion of K562 cells to NETs coated plates (serum free NETs) with anti-integrin blocking Ab, percentage of adherent cells: 10%
[2]
  adhesion of K562 cells to NETs coated plates (NETs from dHL-60 stimulated with 10% FBS), percentage of adherent cells: 59%
  adhesion of K562 cells to NETs coated plates with anti-α5β1 blocking antibody (P1D6), percentage of adherent cells: 24%
